This data set concerns FMDV 3D polymerase wild type (Foot-and-mouth disease virus C-S8c1?). Put plainly: EMSA.

The values that follow come from article PMC2928812.

Substance “heteropolymeric RNA template-primer of the RNA binding assay” yielded a binding signal (% RNA retarded) of 62.
